These are literature values, as cited in patent US20240199736A1, “COMBINATION THERAPY INVOLVING ANTIBODIES AGAINST CLAUDIN 18.2 FOR TREATMENT OF CANCER” (ASTELLAS PHARMA INC., priority 2021, published 2024).

The target in data set [1] is splice variant 1 of Claudin 18 (CLDN18.1) (Homo sapiens, UniProt P56856).
The target of data set [2] is first extracellular domain (ECD1) of CLDN18.2 (Homo sapiens, UniProt P56856).

For the substance “IMAB362: chimeric IgG1 antibody directed against CLDN18.2; heavy chain SEQ ID NO: 51, light chain SEQ ID NO: 24”, the “Binding to other claudin family members including CLDN18.1” value in data set [1] was “does not bind”. For the same substance, the “Recognition of ECD1 of CLDN18.2” value in data set [2] is “high affinity and specificity”.
